For this assay, the target named is RhpA DEAD-box RNA helicase of H. pylori, recombinant, His-tagged (H. pylori). Nature of the assay: SPR.

This passage reports Kd and kon results from PMC8136821 (Nucleic Acids Research, 2021).

B1: H. pylori RNase R (HpRNase R), recombinant, His-tagged (enzyme)
chain: MQGFLRSLFFGVKKIPKPFAPLVEKGVLKEALELKKDRYFLKEGFDIGKVEKVKDKAFFISLAKNYPKDPLIKNLPPSFKTDALILCQIECSKKRPIAFFKAALLNADHTMIAYLAKKNNQIVAIPFKEPFKKPVSLKHSQKSLLELPRHCVVKIDTKKREISEILGALEDPLIDENLSLSLFDRVKDFSKDCLNLAQHYAQLKASDFKDRINYSHIPFITIDPKDAKDFDDAIFYDQEKRVLFVAVADVSEFVPKHSSLDKEARVRGFSVYFPNSVYPMLPLSLSQGACSLKAFEKRLALVYEIPLDNLKNARLSQGVIEVRANCTYEEINHFLSANQSSLDKDLQQSLLGFLEMALKLKKERLKKGFNFNSFENKLYLNKEGRIEKIETEKESDAHTLIEEAMLLANQSSARLLDEHFHNKGIYRTHKEPSLEQQKRLYDKLFDYEIVRPKNMGFFPFLEHALKIAKEKSIEREVSRLIIKSQNLALYSPLQESHFGLGFASYTHFTSPIRRYSDLALHRLLKELLFYQAKGCSYLLEETPELCAELNALQKKAALIERDFIKRKFARLALELLEKEFLGVVLEVKDWVVVGLKEFIGLKVLVKTNKVFKPLEKVRVTITHADLILGQVRGEITERIKEHVS
Take B1: the Kd was determined as 29 ± 4.4 nM and the kon was 35000 M⁻¹ s⁻¹.
